Source: the supplement of paper PMC10065799, “High-throughput profiling of sequence recognition by tyrosine kinases and SH2 domains using bacterial peptide display” (eLife, 2023)

Assays:
Hck = Hck (UniProt P08631); assay: phosphorylation enrichment, bacterial display (enrichment ratio); higher = better substrate or ligand; peptides without Tyr show the background
AncSZ = assay: as above
c-Abl (mouse) = assay: as above
FGFR3 = FGFR3 (UniProt P22607); assay: as above
Fer (mouse) = assay: as above
Fyn = Fyn (UniProt P06241); assay: as above
Fyn, sequence (P06241 whole entry, looked up): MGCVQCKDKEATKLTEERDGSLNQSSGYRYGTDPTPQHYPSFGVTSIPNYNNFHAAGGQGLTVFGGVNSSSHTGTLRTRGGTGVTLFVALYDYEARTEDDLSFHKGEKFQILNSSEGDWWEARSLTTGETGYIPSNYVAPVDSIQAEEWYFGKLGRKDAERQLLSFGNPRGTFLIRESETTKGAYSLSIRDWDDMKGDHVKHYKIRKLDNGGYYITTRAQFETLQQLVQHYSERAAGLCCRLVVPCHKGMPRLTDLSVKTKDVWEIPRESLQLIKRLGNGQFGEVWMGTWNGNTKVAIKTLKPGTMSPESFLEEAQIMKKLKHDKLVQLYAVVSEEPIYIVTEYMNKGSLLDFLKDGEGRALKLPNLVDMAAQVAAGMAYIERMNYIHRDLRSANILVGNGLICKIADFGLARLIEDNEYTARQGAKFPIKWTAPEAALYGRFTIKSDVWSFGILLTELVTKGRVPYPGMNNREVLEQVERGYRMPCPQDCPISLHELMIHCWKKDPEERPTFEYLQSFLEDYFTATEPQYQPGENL

Jak2 = Jak2 (UniProt O60674); assay: as above
Jak2, sequence (O60674 whole entry, looked up): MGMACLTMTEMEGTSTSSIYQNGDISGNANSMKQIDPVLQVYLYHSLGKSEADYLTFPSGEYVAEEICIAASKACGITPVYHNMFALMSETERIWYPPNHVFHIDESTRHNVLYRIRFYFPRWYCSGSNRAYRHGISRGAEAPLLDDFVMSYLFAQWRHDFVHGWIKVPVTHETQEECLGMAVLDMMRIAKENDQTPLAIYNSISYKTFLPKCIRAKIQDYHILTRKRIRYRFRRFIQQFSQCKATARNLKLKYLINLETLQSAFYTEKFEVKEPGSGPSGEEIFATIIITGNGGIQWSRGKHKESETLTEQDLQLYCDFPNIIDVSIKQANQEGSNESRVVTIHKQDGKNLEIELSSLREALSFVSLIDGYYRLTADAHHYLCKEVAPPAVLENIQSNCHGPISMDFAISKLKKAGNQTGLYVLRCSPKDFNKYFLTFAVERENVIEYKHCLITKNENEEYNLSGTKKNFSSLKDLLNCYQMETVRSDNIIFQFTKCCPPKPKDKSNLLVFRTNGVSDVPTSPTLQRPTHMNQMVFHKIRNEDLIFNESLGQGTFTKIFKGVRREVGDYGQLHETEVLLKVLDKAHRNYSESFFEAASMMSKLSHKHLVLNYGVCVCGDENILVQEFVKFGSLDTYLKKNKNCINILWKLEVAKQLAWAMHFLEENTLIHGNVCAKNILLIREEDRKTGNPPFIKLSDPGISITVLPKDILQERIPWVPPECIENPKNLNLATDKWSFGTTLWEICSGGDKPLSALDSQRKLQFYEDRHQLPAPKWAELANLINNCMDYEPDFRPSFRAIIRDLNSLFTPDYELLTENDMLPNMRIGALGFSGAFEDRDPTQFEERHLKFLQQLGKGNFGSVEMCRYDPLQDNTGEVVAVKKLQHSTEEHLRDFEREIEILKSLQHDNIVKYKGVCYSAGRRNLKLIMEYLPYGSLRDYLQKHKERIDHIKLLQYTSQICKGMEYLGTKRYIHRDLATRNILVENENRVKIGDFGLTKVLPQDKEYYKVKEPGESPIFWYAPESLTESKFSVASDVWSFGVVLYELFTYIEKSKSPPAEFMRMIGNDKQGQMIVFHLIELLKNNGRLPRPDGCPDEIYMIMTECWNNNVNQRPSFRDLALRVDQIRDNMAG

MERTK = MERTK (UniProt Q12866); assay: as above
FGFR1 = FGFR1 (UniProt P11362); assay: as above
FGFR1, sequence (P11362 whole entry, looked up): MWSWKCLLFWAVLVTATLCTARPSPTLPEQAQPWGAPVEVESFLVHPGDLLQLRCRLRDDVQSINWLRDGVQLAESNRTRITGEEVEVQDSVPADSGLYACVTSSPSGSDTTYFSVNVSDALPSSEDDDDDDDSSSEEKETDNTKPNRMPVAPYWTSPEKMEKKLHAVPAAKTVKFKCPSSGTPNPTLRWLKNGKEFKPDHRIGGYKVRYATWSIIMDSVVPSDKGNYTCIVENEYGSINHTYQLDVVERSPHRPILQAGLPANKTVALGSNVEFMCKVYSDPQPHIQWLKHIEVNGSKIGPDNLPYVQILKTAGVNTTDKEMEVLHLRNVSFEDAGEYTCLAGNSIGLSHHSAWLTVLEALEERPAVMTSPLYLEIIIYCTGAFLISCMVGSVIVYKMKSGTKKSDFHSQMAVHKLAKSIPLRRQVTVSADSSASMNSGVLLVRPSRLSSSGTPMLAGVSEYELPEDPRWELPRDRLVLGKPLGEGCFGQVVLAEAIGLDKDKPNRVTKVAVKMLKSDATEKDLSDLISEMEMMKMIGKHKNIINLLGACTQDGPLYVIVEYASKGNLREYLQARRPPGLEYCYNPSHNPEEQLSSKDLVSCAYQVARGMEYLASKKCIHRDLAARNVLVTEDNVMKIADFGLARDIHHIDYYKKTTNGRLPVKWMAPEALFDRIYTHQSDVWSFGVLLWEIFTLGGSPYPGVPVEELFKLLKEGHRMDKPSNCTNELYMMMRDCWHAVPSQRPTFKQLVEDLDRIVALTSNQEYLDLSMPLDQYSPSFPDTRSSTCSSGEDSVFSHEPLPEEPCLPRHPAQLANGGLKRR

EPHB1 = EPHB1 (UniProt P54762); assay: as above
EPHB1, sequence (P54762 whole entry, looked up): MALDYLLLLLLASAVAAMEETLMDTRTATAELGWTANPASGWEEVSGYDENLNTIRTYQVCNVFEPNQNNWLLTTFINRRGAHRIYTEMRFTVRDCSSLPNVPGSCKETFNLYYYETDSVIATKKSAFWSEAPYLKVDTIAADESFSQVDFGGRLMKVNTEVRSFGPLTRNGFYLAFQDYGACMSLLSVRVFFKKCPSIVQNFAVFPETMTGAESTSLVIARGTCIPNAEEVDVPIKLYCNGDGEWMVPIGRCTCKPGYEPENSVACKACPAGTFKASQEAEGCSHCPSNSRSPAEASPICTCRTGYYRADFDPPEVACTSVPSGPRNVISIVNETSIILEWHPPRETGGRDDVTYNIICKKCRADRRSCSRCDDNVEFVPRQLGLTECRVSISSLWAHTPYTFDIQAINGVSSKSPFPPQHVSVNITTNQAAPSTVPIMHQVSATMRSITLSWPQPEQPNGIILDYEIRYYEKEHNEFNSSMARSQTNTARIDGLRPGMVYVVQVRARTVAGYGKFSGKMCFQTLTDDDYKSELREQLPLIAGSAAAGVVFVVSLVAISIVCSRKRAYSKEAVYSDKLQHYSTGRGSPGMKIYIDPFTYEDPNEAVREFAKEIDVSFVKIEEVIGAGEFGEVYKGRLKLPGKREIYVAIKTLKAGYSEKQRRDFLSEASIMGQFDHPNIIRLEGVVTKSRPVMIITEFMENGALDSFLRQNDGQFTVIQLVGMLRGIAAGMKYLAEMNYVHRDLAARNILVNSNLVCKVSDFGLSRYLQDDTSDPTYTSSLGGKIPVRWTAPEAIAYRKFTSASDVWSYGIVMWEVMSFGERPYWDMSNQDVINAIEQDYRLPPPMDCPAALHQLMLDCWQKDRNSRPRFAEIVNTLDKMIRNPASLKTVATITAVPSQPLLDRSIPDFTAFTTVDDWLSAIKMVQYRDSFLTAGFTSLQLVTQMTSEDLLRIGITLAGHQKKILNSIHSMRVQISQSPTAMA

c-Src = assay: as above
EPHB2 = EPHB2 (UniProt P29323); assay: as above
Fes = Fes (UniProt P07332); assay: as above
SHP2-C SH2 = assay: SH2 binding enrichment of the phosphorylated peptide, bacterial display (enrichment ratio); higher = better substrate or ligand; peptides without Tyr show the background
Grb2 SH2 = Grb2 SH2 (UniProt P62993); assay: as above
Grb2 SH2, sequence (P62993 whole entry, looked up): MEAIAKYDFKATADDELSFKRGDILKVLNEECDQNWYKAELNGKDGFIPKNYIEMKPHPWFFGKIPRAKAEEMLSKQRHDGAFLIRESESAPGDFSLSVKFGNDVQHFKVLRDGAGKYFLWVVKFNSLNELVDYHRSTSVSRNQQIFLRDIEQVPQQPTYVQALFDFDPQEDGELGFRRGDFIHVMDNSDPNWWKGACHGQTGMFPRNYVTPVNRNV

c-Src SH2 = assay: as above
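For SH2 binding enrichment of the phosphorylated peptide, bacterial display in this document: peptide library displayed on the E. coli surface as eCPX fusions, selected cells deep-sequenced, score is each peptide's frequency after selection divided by its frequency in the input.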
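For phosphorylation enrichment, bacterial display in this document: 11-residue human phosphosite peptides and single-mutation variants displayed on the E. coli surface, counted by deep sequencing, each peptide's frequency after selection divided by its frequency in the unselected input library; frequency after pTyr selection over input frequency; kinase dosed for 20-30% of maximal phosphorylation in three min.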

Hck, sequence (P08631 whole entry, looked up): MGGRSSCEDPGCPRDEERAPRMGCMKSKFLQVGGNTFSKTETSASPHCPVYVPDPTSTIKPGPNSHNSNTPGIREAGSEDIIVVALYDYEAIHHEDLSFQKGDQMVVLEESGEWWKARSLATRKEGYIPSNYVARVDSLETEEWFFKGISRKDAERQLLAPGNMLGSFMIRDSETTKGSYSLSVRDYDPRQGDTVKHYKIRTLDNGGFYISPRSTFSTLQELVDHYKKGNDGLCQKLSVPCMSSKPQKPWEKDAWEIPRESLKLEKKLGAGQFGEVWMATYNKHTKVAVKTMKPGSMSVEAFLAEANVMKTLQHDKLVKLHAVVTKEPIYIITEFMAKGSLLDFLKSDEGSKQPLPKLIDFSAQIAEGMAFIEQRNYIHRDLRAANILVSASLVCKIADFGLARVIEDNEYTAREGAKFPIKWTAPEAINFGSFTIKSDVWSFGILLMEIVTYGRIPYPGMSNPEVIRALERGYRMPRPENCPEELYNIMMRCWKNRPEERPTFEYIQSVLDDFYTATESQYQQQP
FGFR3, sequence (P22607 whole entry, looked up): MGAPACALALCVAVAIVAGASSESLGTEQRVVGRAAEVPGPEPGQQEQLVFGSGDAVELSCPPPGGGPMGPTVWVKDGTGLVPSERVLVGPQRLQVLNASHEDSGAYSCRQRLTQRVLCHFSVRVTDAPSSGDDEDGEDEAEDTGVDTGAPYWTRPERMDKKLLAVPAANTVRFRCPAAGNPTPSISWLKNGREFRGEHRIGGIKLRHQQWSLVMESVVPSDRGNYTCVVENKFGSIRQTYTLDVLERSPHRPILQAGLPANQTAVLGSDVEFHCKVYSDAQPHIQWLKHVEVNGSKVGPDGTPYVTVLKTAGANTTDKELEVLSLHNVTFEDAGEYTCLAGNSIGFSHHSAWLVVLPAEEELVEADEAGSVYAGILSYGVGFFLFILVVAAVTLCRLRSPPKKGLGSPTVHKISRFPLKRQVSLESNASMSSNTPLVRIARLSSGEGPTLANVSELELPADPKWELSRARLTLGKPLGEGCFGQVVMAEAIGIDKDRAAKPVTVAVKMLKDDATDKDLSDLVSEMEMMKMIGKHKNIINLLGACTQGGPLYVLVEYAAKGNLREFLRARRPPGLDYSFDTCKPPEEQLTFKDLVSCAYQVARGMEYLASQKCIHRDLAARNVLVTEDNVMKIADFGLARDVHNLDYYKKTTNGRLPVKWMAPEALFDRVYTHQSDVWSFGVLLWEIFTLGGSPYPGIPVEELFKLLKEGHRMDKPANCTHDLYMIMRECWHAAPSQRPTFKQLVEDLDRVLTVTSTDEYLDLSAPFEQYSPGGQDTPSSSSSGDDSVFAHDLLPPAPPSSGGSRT

Row | Sequence | phosphorylation enrichment (Hck) | phosphorylation enrichment (AncSZ) | phosphorylation enrichment (c-Abl (mouse)) | phosphorylation enrichment (FGFR3) | phosphorylation enrichment (Fer (mouse)) | phosphorylation enrichment (Fyn) | phosphorylation enrichment (Jak2) | phosphorylation enrichment (MERTK) | phosphorylation enrichment (FGFR1) | phosphorylation enrichment (EPHB1) | phosphorylation enrichment (c-Src) | phosphorylation enrichment (EPHB2) | phosphorylation enrichment (Fes) | SH2 binding enrichment (SHP2-C SH2) | SH2 binding enrichment (Grb2 SH2) | SH2 binding enrichment (c-Src SH2)
1 | SVSVNYGDQVQ [GRAP_Y101] | 0.416 | 0.748 | 0.804 | 0.561 | 0.442 | 0.409 | 0.794 | 0.545 | 0.481 | 0.443 | 0.429 | 0.483 | 0.902 | 0.651 | 0.941 | 0.487
2 | KLCHLYQDHMQ [WNT5A_Y86] | 0.554 | 0.654 | 0.597 | 0.514 | 0.667 | 0.442 | 0.549 | 0.45 | 0.44 | 0.54 | 0.575 | 0.53 | 0.881 | 1.17 | 1.08 | 1.4
3 | GETEQYVGGGG [FAT4_Y4980_A4977T] | 0.467 | 0.889 | 0.624 | 0.599 | 0.436 | 0.475 | 0.66 | 0.414 | 0.437 | 0.526 | 0.419 | 0.475 | 0.922 | 0.553 | 0.798 | 0.506
4 | EGTATYAAAIL [JUP_Y644_V648I] | 1.21 | 0.857 | 0.976 | 0.586 | 1.57 | 1.25 | 0.795 | 0.534 | 0.476 | 0.884 | 1.25 | 1.76 | 0.872 | 0.429 | 0.82 | 0.412
5 | LEDEVYAQKMK [TPM2_Y261] | 2.62 | 2.79 | 1.49 | 1.97 | 1.91 | 2.37 | 2.5 | 0.889 | 1.25 | 2.92 | 1.22 | 1.08 | 2.74 | 0.836 | 0.953 | 0.521
6 | DASAVYLRDFQ [PLCG2_Y242_H244R] | 0.544 | 0.769 | 0.986 | 0.58 | 0.452 | 0.562 | 0.894 | 0.675 | 0.425 | 0.506 | 0.693 | 0.492 | 0.963 | 0.553 | 0.95 | 0.471
7 | HHLSTYTKMLF [CHST8_Y251_R247H] | 0.814 | 1.39 | 0.792 | 1.05 | 0.504 | 0.989 | 0.743 | 0.541 | 0.714 | 0.956 | 0.71 | 0.902 | 1.32 | 3.88 | 1.11 | 2.54
8 | RGFRQDAFDGK [HLA-A_Y140_YF] | 0.396 | 0.575 | 0.935 | 0.73 | 0.487 | 0.414 | 0.461 | 0.559 | 0.488 | 0.454 | 0.633 | 0.475 | 0.633 | 1.05 | 0.711 | 0.412
